First the molecules themselves.
B1: unnamed (parent)
chain 1: SIDPADLDESWDYIFETTESPSSD
chain 2: MSHSGAAIFEKVSGIIAINEDVSPAELTWRSTDGDKVHTVVLSTIDKLQATPASSEKMMLRLIGKVDESKKRKDNEGNEVVPKPQRHMFSFNNRTVMDNIKMTLQQIISRYKDAD

In the experiment the parent is B1. The experiment in a line: ITC. As to conditions: with partner chain of the complex shown; 25°C in a 20 mM Tris pH 7.4.
Usually Kd stands for the equilibrium constant for the complex coming apart. Turning to chain 1 I14S, the Kd was found to be 4.2 µM.

Values taken from PMC3968163.
